From patent US20250282852A1
pKd: −log10 of the molar value.

Key:
[1] = molecular target: biotinylated oligomeric Aβ1-42 (UniProt P05067); experiment: Octet biolayer interferometry, biotinylated oligomeric Aβ on streptavidin biosensor, hCD22-His in solution
[2] = molecular target: biotinylated oligomeric Aβ1-42 (UniProt P05067); experiment: Octet 96e (printed as 'SPR system'), biotinylated oligomeric Aβ1-42 on streptavidin biosensor, CD22 extracellular domain at various concentrations in solution

- koff [1]: 0.000522 s⁻¹
- kon [1]: 186000 M⁻¹ s⁻¹
- pKd [2]: 8.55
Substance: extracellular domain of CD22 (Sino Biological) (receptor)
